The nanobody polyreactivity screen of Harvey et al. (2022)

Experiment: yeast display, Sf9 membrane polyspecificity reagent, FACS + sequencing; frameworks hold sequencing errors
Outline: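 Nanobodies from a synthetic yeast display library (Saccharomyces cerevisiae BJ5465), induced 36–48 hours with galactose, were stained 1 hour at 4 °C with 10% biotinylated, detergent-solubilized Sf9 membrane reagent, enriched on streptavidin microbeads, then FACS-sorted. Anti-HA (expression) and streptavidin (reagent binding) fluorescence set low and high (top ~1%) gates. Polyreactivity labels come from the gate of origin. Genes were colony-PCR amplified, MiSeq 2 × 250 sequenced and filtered by CDR length.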

| Sequence | polyreactivity (PSR sort gate) |
| --- | --- |
| QVQLVESGGGLVQAGGSLRLSCADSGRTIYSNAMGWNIQAPGKERELVAAITGSSGSTYYADSVKGRFTISRDNAKNTVYLQMYSLKPEDTAVYYCAASCYGSLVRQLRLRGQGTQVTVSS | low polyreactivity |
| QVQLVESGGGLVQAGGSLRLSCADSGSIFGINTMGWYRQAPGKERELVAAITFGGGSTYYADSVKGRFTISRDNAKNTVYLQMNSLKPEDTAVYYCNRLGVYWVGTEFDYWGQGTQVTVSS | low polyreactivity |
| QVQLVESGGGLVQAGGSLRLSCADSGSIFGVYTRGWYSQAPGKERELVAAISGSGGSTYYADSVMGRFTISRDNAKNTVYFQMNSLIPEDTGVDYCATRFPNIPPYDSWGQGTQVTVSS | low polyreactivity |
| QVQLVESGGGLVQAGGSLRLSCADSGSIFGYNAMGWYRQAPGKEREFVAAISWSGGRTYYADSVKGRFTISRDNAKNTVYLQMNSLKPEDTAVYYCAAPSRPAPRFDYWGQGTQVTVSS | low polyreactivity |
| QVQLVESGGGLVQAGGSLRLSCADSGSIFLFNAMGWYRQAPGKERELVAAINRDDSTYYADSVKGRFTISRDNAKNTVYLQMNSLKPEDTAVYYCAAPVLHASYGYGYWGQGTQVTVSS | low polyreactivity |
| QVQLVESGGGLVQAGGSLRLSCADSGSIFNGNTMGWYRQAPGKERELVAAITSGGRTYYADSVKGRFTISRDNAKNTVYLQMNSLKPEDTAVYYCATRNPYYRSYYSYDYWGQGTQVTVSS | high polyreactivity |
| QVQLVESGGGLVQAGGSLRLSCADSGSIFQRYAVGWYRQAPGKEREVVAAFTASGGSTYYADSVKGRFTISRDNAKNTVYLQMNILKPEDTAVYYCATDSYWRQDLYRYEYWGQGTQVTVSS | high polyreactivity |
| QVQLVESGGGLVQAGGSLRLSCADSGSIFRVNAMGWYRQAPGKDRELVAAISSGGSTHYADSVKGRFTISRDNAKNTVYLQMNSLKPEDTAVYYCAVRYALVPYLWYYWGQGTQVTVSS | high polyreactivity |
| QVQLVESGGGLVQAGGSLRLSCADSGSIFRYNAMGWSRQAPGKERELVAAISGSGGSTYYADSVKGRFTISRDNAKNTVYLQRNSLKPEDTAVYYCNTRVYHYHYSYYPGGYWGQGTQVTVSS | high polyreactivity |
| QVQLVESGGGLVQAGGSLRLSCADSGSTFGYYAMGSYRQAPGKERELVAAITSTGRTKYADSVKGRVTISRDNAKNTVNLQMNSLKPEDTAVYYCAADIWGQGTQVTVSS | high polyreactivity |
| QVQLVESGGGLVQAGGSLRLSCADSGSTFLVYSMGWYRQAPGKERELVAVIDNGGDTYYADSVKGRFTISRDNAKNTVYLQMNSLKPEDTEVYYCAADLSYLGYWEYDYWGQGSQVTVSS | low polyreactivity |
| QVQLVESGGGLVQAGGSLRLSCADSGSTFTRYGMGWYRQAPGKERELVAAITTSGSSTYYADSVKGRYTISRDNAKNTVYLQMNSLKPEDTAVYYCAADWSSWGFDYWGQGTQVTVSS | low polyreactivity |
| QVQLVESGGGLVQAGGSLRLSCADSGSTFWYNAMGWYRQAPGKERELVAAITWSASRTYYADSVKGRFTISRDNAKNTVYLQMNSLKPEDTAVYYCAKASPRYKYFTGDYWGQGTQVTVSS | high polyreactivity |
| QVQLVESGGGLVQAGGSLRLSCADSGSTLQVNAMGWYRQAPGKERELVATISFSGGSTYYADSVKGRFTISRDNAKNTVYLQMNSLNPEDTAVYYCNADSFVSWYNQFWYQATYDYWGQGTQVTVSS | low polyreactivity |
| QVQLVESGGGLVQAGGSLRLSCADSGSTPVYAMGWYIQAPGKERELVAAIRRRASSTYYADSVKGRLTISRDNAKNTVYLQMNSLKPEDTAVYYCAVGRLNGVLLGYWGQGTQVTVSS | high polyreactivity |
| QVQLVESGGGLVQAGGSLRLSCADSVIIFRVYVMGCYRQAPGKERELVDAISTSGGRTSYADSVKGRFTISRDNAKNTVYLQMNSLKPEDTAVYYCAARPLYSYSQWGYGYWGQGTQVTVSS | high polyreactivity |
| QVQLVESGGGLVQAGGSLRLSCADTGSTFYNYAMGWYRQAHGKERELVAAISSGGSTNYADSVKGLFTISRDNAKNTVYLKMNSLKPEDTAVYYCARRHRVYTSRIGHDYWGQGTQGTVSS | low polyreactivity |
| QVQLVESGGGLVQAGGSLRLSCAGLRIYLPGYARGWYRQAPGKERELVAVISGSGSGTYYADSVKGRFTISRDNAKNTVYLQMNSLKPEDTAVYYCAADDVGRGSTPYDYWGQGTQVTVSS | high polyreactivity |
| QVQLVESGGGLVQAGGSLRLSCAGSGFIFHLYAMGWYRPAPGKERELVAAIRISDGSTYYADSVKGRFTISRDNAKNTVYLLMNSLKPEDTAVYYCNRVRSSYVYVSRFDYWGQGTQVTVSS | high polyreactivity |
| QVQLVESGGGLVQAGGSLRLSCAGSGFTFAYYAMGWYRQAPGKERELVAAITRGGGRTFYADSVKGRFTISRDNAKNTVYLQMNSLKPEDTAVYYCAAVKDTTNSRGYGYWGQGTQVTVSS | high polyreactivity |
| QVQLVESGGGLVQAGGSLRLSCAGSGFTFGKNAMGWYRQAPGKERELVAANSGRGGRTFYADSVKGRFTISRDNAKNTVYLQMNSLKPEDTADYYCAAQRYYDNQYPYEYWGQGTQVTVSS | high polyreactivity |
| QVQLVESGGGLVQAGGSLRLSCAGSGGIIGSNAMGWYRQAPGKERELVAAINTRGGRTYYADSVKWRFTISRDNAKNTVYLQMNILKPEDTAVYYCATVSYSSRRDRYDYWGQGTQVTVSS | high polyreactivity |

| Sequence | polyreactivity (PSR sort gate) |
| --- | --- |
| QVQLVESGGGLVQAGGSLRLSCAGSGRTFQYYAMGCYRQAPGKEMELVAGITGGGSTYYADSVKGRFTISRDNAKNTVYLQMNSLKPEDTAVYYCAADRSYYGYGYWGQGTQVTVSS | low polyreactivity |
| QVQLVESGGGLVQAGGSLRLSCAGSGRTLVLYDRGWSRQAHGKARELVAAITWSGDSTYYADSVKGRFTISRDNAKNTVYLQMNSLKPEDTQVYYCSATYLNAKRGLRDDYWGQGTQVTVSS | low polyreactivity |
| QVQLVESGGGLVQAGGSLRLSCAHSGFTFTYYAMGWYRQAPGKEREFVAGISRSGGSTYYADSVKGRFTISRDIAKNTVYLQMNSLKPEDTAVYYCAATAYSPRGKRYDSWGQGTQVTVSS | high polyreactivity |
| QVQLVESGGGLVQAGGSLRLSCAPAGRTFNGYAMGWYRQAPGKERELVASITLRGGSTYYADSVKGRFTISRDNAKNTVYLQMNSLKPEDTAVYYCNARPHTRRYTFTYGYWGQGTQVTVSS | high polyreactivity |
| QVQLVESGGGLVQAGGSLRLSCAPSGFIFDYNAMGWYRQAPGKERELVAAISISGGGTYYADSVKGRFTISRDNAKNTVYLQMNSLKPEDTAVYYCATAGRYDAYDYWGQGTQVTVSS | low polyreactivity |
| QVQLVESGGGLVQAGGSLRLSCAPSGFIFEGNAMGWYRQAPGKERELVATISRSGGRTNYADSVKGRFTISRDNAKNTVYLQMNSLKPEDTAVYYCAAAYLRRVAYDYWGQGTQVTVSS | high polyreactivity |
| QVQLVESGGGLVQAGGSLRLSCAPSGFIFNRNTMGWYRQAPGKERELVAAISFRGTSTYYADSVKGRFTISRDNAKNTVYLQMNSLKPEDTAVYYCNRARILVWSKYGYWGQGTQVNVSS | high polyreactivity |
| QVQLVESGGGLVQAGGSLRLSCAPSGFIFTLYAMGWYRQAPGKERELVASISSGGSTNYADSVKGRFTISRDNAKNTVYLQMHSLKPEATAVYYCDAYYYSKSDRFSGRYGRYYWGQVTQVTVSS | high polyreactivity |
| QVQLVESGGGLVQAGGSLRLSCAPSGFIFWRNAMGWYRQAPGKEREFVAAITSSGGRTYYADSVKGRFTISRDNAKNTVYLQMNSLKPEDTAVYYCAAEIRDYAKSYSFYWGQGTQVTVSS | high polyreactivity |
| QVQLVESGGGLVQAGGSLRLSCAPSGFTFRGNAMGWYRQAPGKERELVATISRGGNTNYADSVKGRCTISRDNAKNTVYLQMNSLKPEDTAVYYCAAVSFIRSKVAYNYWGQGTQVTVSS | low polyreactivity |
| QVQLVESGGGLVQAGGSLRLSCAPSGFTFRRNAMGWYRQAPGKERELVAVITSSARTNYADSVKGRFTISRDNAKKTVYLEMNSLKPEDTAVYYCAARYHYGVWRERHGYWGQGTKVTVSS | high polyreactivity |
| QVQLVESGGGLVQAGGSLRLSCAPSGFTFSYNAMGWYRQAPGKERELVAAISNSGGSTYYADSVKGRFTISRDNAKYTVYLQMNSLKPEDTAVYYCAADVAQVGYQVGVSEIYPGYEYWGQGTQVTVSS | low polyreactivity |
| QVQLVESGGGLVQAGGSLRLSCAPSGGTFPFNAMGWYRQAPGKERELVAAISGRSGRTYYADSVKGRFTISRDNAKNTVDLQMNRLKPEDTAVYYCAARRWRPYDYWGQGTQVTVSS | high polyreactivity |
| QVQLVESGGGLVQAGGSLRLSCAPSGIIFLGYMGWYRQAPGKEREFVADITFSVDGTYYADSVKGRFTISRDNAKNTVYLQMNSLKPEDNAVYYCAAVSDLQAGTMEYWGQGTEVTVSS | high polyreactivity |
| QVQLVESGGGLVQAGGSLRLSCAPSGIIFRGNAMGWYRQAPGKEREFVAAISLRGSRTYYADSVKGRFTISRDNAKNTVYLQMNSLKQEDTAVYYCAATRPYRYNYWGQGTQVTVSS | high polyreactivity |
| QVQLVESGGGLVQAGGSLRLSCAPSGIIFSPNAMGLYRQAPGKERELVASISSDSSTNYADSVKGRFSISRDNAKNTVYLQMNSLKPEYTAVYYCAADFVVGQAGDWTFWFDYWGQGTQVTVSS | low polyreactivity |
| QVQLVESGGGLVQAGGSLRLSCAPSGIIFYGNAMGWYRPAPGKERELVAAITRSGVRTYYADSVKGRFTISRDNAKKTGYLQMNSLNPEDSAVSYCAAVKPVSSRHYPYDYWGQGTQVTVSS | high polyreactivity |
| QVQLVESGGGLVQAGGSLRLSCAPSGITFRSYAMGWYRQAPGKERELVATISWSGGITYYADSVKGRFTISRDNAKNTVYLQMNSLKPEDTAVYYCATASQSWGRDDYYYWGQGTQVTVSS | low polyreactivity |
| QVQLVESGGGLVQAGGSLRLSCAPSGITFWYYAMGWYRQAPGKERELVAAINKSGGRTYYADSVKGRFTISRDNAKNTVYLQMNSLKPEDTAVYYCAAPRSRSRTSRFDYWGQGTQVTVSS | high polyreactivity |
| QVQLVESGGGLVQAGGSLRLSCAPSGITLDSNAMGWYRQARGKERELVAAINWSTGSTYYADSVKGRFTISRDNAKNTVYLQMNSLKPEDTAVYYCAVDYRYGYFVYVHYEYWGQGTQETVSS | high polyreactivity |
| QVQLVESGGGLVQAGGSLRLSCAPSGLIFDANAMGWYRQAPGKERELVAAISNGDSTYYADSVKGRFTISRDNAKNTLYLQMNSLKPEDTAVYYCNARIIYRKWLLRSGTFNYWGQGTQVTVSS | low polyreactivity |
